# B1: RhAG (natural protein, human (endogenous in erythrocytes), UniProt Q02094 1-409, looked up)
# chain: MRFTFPLMAIVLEIAMIVLFGLFVEYETDQTVLEQLNITKPTDMGIFFELYPLFQDVHVMIFVGFGFLMTFLKKYGFSSVGINLLVAALGLQWGTIVQGILQSQGQKFNIGIKNMINADFSAATVLISFGAVLGKTSPTQMLIMTILEIVFFAHNEYLVSEIFKASDIGASMTIHAFGAYFGLAVAGILYRSGLRKGHENEESAYYSDLFAMIGTLFLWMFWPSFNSAIAEPGDKQCRAIVNTYFSLAACVLTAFAFSSLVEHRGKLNMVHIQNATLAGGVAVGTCADMAIHPFGSMIIGSIAGMVSVLGYKFLTPLFTTKLRIHDTCGVHNLHGLPGVVGGLAGIVAVAMGASNTSMAMQAAALGSSIGTAVVGGLMTGLILKLPLWGQPSDQNCYDDSVYWKVPKTR
# B2: glycophorin A (natural protein, human (endogenous in erythrocytes), UniProt P02724 20-150, looked up)
# chain: LSTTEVAMHTSTSSSVTKSYISSQTNDTHKRDTYAATPRAHEVSEISVRTVYPPEEETGERVQLAHHFSEPEITLIIFGVMAGVIGTILLISYGIRRLIKKSPSDVKPLPSPDTDVPLSSVEIENPETSDQ
# B3: protein 4.2 (natural protein, human (endogenous in erythrocytes), UniProt P16452 1-691, looked up)
# chain: MGQALGIKSCDFQAARNNEEHHTKALSSRRLFVRRGQPFTIILYFRAPVRAFLPALKKVALTAQTGEQPSKINRTQATFPISSLGDRKWWSAVVEERDAQSWTISVTTPADAVIGHYSLLLQVSGRKQLLLGQFTLLFNPWNREDAVFLKNEAQRMEYLLNQNGLIYLGTADCIQAESWDFGQFEGDVIDLSLRLLSKDKQVEKWSQPVHVARVLGALLHFLKEQRVLPTPQTQATQEGALLNKRRGSVPILRQWLTGRGRPVYDGQAWVLAAVACTVLRCLGIPARVVTTFASAQGTGGRLLIDEYYNEEGLQNGEGQRGRIWIFQTSTECWMTRPALPQGYDGWQILHPSAPNGGGVLGSCDLVPVRAVKEGTLGLTPAVSDLFAAINASCVVWKCCEDGTLELTDSNTKYVGNNISTKGVGSDRCEDITQNYKYPEGSLQEKEVLERVEKEKMEREKDNGIRPPSLETASPLYLLLKAPSSLPLRGDAQISVTLVNHSEQEKAVQLAIGVQAVHYNGVLAAKLWRKKLHLTLSANLEKIITIGLFFSNFERNPPENTFLRLTAMATHSESNLSCFAQEDIAICRPHLAIKMPEKAEQYQPLTASVSLQNSLDAPMEDCVISILGRGLIHRERSYRFRSVWPENTMCAKFQFTPTHVGLQRLTVEVDCNMFQNLTNYKSVTVVAPELSA
# modifications: N-terminal glycine myristoylated
# B4: aquaporin-1 (natural protein, human (endogenous in erythrocytes), UniProt P29972 1-269, looked up)
# chain: MASEFKKKLFWRAVVAEFLATTLFVFISIGSALGFKYPVGNNQTAVQDNVKVSLAFGLSIATLAQSVGHISGAHLNPAVTLGLLLSCQISIFRALMYIIAQCVGAIVATAILSGITSSLTGNSLGRNDLADGVNSGQGLGIEIIGTLQLVLCVLATTDRRRRDLGGSAPLAIGLSVALGHLLAIDYTGCGINPARSFGSAVITHNFSNHWIFWVGPFIGGALAVLIYDFILAPRSSDLTDRVKVWTSGQVEEYDLDADDINSRVEMKPK
# modifications: lipid-like density attached to Cys-87, assigned as a palmitoylation site
# Columns and labels:
# Assay in all cases: cryo-EM structure
# RhCE = target: T1, RhCE (human (endogenous in erythrocytes), UniProt P18577 1-417)
# T1 sequence (looked up): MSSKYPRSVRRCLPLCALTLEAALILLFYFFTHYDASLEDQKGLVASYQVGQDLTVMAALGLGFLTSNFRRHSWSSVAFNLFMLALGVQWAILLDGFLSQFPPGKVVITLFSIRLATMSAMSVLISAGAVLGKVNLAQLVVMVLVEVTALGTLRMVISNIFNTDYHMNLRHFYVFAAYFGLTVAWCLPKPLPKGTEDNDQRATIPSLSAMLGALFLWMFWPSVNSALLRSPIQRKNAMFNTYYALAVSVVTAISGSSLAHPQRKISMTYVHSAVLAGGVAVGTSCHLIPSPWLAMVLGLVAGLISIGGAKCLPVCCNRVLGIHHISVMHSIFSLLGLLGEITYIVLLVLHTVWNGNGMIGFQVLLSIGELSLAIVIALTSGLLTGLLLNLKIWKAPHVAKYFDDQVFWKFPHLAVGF
# cryo-EM structure = target: the molecule itself
# band 3 anion exchanger [1] = target: T2, band 3 anion exchanger (human (endogenous in erythrocytes), UniProt P02730 1-911)
# T2 sequence (looked up): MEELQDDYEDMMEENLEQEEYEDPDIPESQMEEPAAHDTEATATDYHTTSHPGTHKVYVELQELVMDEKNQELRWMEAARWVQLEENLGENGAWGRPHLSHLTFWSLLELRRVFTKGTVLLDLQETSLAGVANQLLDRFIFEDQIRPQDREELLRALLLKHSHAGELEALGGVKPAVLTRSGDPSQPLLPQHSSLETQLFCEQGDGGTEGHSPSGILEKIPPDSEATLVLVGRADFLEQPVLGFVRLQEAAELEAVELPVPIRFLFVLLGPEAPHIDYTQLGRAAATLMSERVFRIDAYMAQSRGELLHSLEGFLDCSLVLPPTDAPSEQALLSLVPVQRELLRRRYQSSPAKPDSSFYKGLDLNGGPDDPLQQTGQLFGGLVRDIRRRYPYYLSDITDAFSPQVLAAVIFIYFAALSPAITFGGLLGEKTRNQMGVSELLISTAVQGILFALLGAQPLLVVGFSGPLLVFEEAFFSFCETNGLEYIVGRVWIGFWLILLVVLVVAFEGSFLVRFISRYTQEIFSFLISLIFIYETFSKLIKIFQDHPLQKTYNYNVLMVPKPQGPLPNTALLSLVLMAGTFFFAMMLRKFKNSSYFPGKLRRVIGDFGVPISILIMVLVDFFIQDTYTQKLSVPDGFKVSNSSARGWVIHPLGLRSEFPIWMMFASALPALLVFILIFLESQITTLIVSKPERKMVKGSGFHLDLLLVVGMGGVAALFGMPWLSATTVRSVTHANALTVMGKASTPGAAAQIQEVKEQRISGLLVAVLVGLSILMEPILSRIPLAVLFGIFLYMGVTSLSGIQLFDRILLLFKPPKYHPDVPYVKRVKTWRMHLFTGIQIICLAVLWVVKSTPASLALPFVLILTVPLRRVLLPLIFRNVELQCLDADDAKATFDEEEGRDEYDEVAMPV
# band 3 anion exchanger [2] = target: T2, band 3 anion exchanger; remark: listed apart in the source
# protein 4.2 = target: B3
binder,measurement,setting,value
B1,stoichiometry N,RhCE,2 RhAG per RhCE
same,binding result,cryo-EM structure,binds
B2,stoichiometry N,band 3 anion exchanger [1],1 GPA per band 3 protomer
B3,binding result,band 3 anion exchanger [2],binds
B4,binding result,protein 4.2,binds

# Source: PMC10373098 (Nature structural & molecular biology, 2022)
